What all share (type): cell-based
Test [1] concerns MCF7-TR2 cells. In words: MTT growth assay, MCF7-TR2 cells. As to the method:
(§1) (A) Growth assays were performed by MTT method as instructed by manufacturer (Sigma). 5×10^3 MCF7-pBIG and MCF7-TR2 cells were seeded in 24-well plates and incubated in RPMI with 10% CD-FCS for 48 h. […] After 3- and 5-day treatment, cells were harvested for MTT assay. Data represents the relative folds of MTT O.D.570 values at day 5 divided by that at day 3. […] Cells were then trypsinized and fixed overnight in 70% Ethanol. After cells were incubated with 1 mg/ml RNase A (Sigma) and propidium iodide (Roche Molecular Biochemicals), the DNA contents of cells were measured by a flow cytometry. (C) Percentage of growth suppression by TR2. MCF7-TR2 cells were seeded at 5×10^3 cells per well in 24-well plates. […] The treatments were changed every two days. The indices of cell growth were determined by MTT assay. The MTT values from cells without doxycycline were set as 100% in each kind of treatment. Values are represented by the percentage of growth suppression from cells with doxycycline to that without doxycycline.

Test [2] concerns MCF7-TR2 cells. The test is described as follows: Cell cycle profile by flow cytometry, MCF7-TR2 cells. The conditions noted are these: 3 days, E2, or E2 with doxycycline-induced TR2. As for the experimental part:
as §1
A general note: In flow cytometry, cells or beads pass a laser one at a time.

In another test the test system is cyclin D1. The test is described as follows: Western blot of cyclin D1 in MCF-7-TR4 cells. The note with it: 10 nM E2, Dox. As for the experimental part: MCF-7-TR4 or MCF-7-pBIG cells were cultured in DMEM containing 10% charcoal dextran-treated FBS for 3 days and then 1×10^6 cells were seeded on 100-mm dishes. […] The lysate protein amount was quantitated by Bradford assay (Bio-Rad, Hercules, Calif.) with bovine serum albumin as a reference standard. One hundred μg protein was loaded and after electrophoresis on 10% SDS-PAGE was transferred onto Immobulin (Milipore, Bedford, Mass.). The membrane was blotted with anti-cyclin D1 rabbit polyclonal Ab (H-295) (Santa Cruz). Alkaline phosphatase conjugated secondary Ab was used.
For orientation: Immunoblotting shows a protein as a band on a membrane.

B1: TR2: human testicular orphan nuclear receptor 2, 603 amino acids (protein, UniProt P13056 1-603, looked up)
chain: MATIEEIAHQIIEQQMGEIVTEQQTGQKIQIVTALDHNTQGKQFILTNHDGSTPSKVILARQDSTPGKVFLTTPDAAGVNQLFFTTPDLSAQHLQLLTDNSPDQGPNKVFDLCVVCGDKASGRHYGAVTCEGCKGFFKRSIRKNLVYSCRGSKDCIINKHHRNRCQYCRLQRCIAFGMKQDSVQCERKPIEVSREKSSNCAASTEKIYIRKDLRSPLTATPTFVTDSESTRSTGLLDSGMFMNIHPSGVKTESAVLMTSDKAESCQGDLSTLANVVTSLANLGKTKDLSQNSNEMSMIESLSNDDTSLCEFQEMQTNGDVSRAFDTLAKALNPGESTACQSSVAGMEGSVHLITGDSSINYTEKEGPLLSDSHVAFRLTMPSPMPEYLNVHYIGESASRLLFLSMHWALSIPSFQALGQENSISLVKAYWNELFTLGLAQCWQVMNVATILATFVNCLHNSLQQDKMSTERRKLLMEHIFKLQEFCNSMVKLCIDGYEYAYLKAIVLFSPDHPSLENMEQIEKFQEKAYVEFQDYITKTYPDDTYRLSRLLLRLPALRLMNATITEELFFKGLIGNIRIDSVIPHILKMEPADYNSQIIGHSI
modifications: full-length
notes: human testicular orphan nuclear receptor 2, 603 amino acids
As to B1, the “Cell growth suppressed by TR2, compared to cells without doxycycline” value was 29-45% with MCF7-TR2 cells [1] (all-trans retinoic acid treated cells (all-trans RA)); 71-72% with MCF7-TR2 cells [1] (presence of E2, 6- and 8-day treatments); 8-9% with MCF7-TR2 cells [1] (under 5 μM tamoxifen treatment). Also, the “Cells in G1” value in the test with MCF7-TR2 cells [2] is 58.1%. Further, the “Cells in S” value with MCF7-TR2 cells [2] stood at 14.5%.

B2: TR4: human testicular orphan nuclear receptor 4, SEQ ID NO:16; expressed from plasmid or in vitro translated (protein)
chain: MTSPSPRIQIISTDSAVASPQRIQGSEPASGPLSVFTSLNKEKIVTDQQTGQKIQIVTAVDASGSPKQQFILTSPDGAGTGKVILASPETSSAKQLIFTTSDNLVPGRIQIVTDSASVERLLGKTDVQRPQVVEYCVVCGDKASGRHYGAVSCEGCKGFFKRSVRKNLTYSCRSSQDCIINKHHRNRCQFCRLKKCLEMGMKMESVQSERKPFDVQREKPSNCAASTEKIYIRKDLRSPLIATPTFVADKDGARQTGLLDPGMLVNIQQPLIREDGTVLLATDSKAETSQGALGTLANVVTSLANLSESLNNGDTSEIQPEDQSASEITRAFDTLAKALNTTDSSSSPSLADGIDTSGGGSIHVISRDQSTPIIEVEGPLLSDTHVTFKLTMPSPMPEYLNVHYICESASRLLFLSMHRARSIPAFQGLGQDCNTSLVRACWNELFTLGLAQCAQVMSLSTILAAIVNHLQNSIQEDKLSGDRIKQVMEHIWKLQEFCNSMANWDIDGYEYAYLKAIVLFSPDHPGLTSTSQIEKFQEKAQMELQDYVQKTYSEDTYRLARILVRLPALRLMSSNITEELFFTGLIGNVSIDSIIPYILKMETAEYNGQITGVSL
As for B2, the “Cyclin D1 expression” value in the test on cyclin D1 was “suppress”.

For the origin of these results see patent US20030235860A1, “Interactions between AR, ER, TR2, and TR4” (priority 1999, published 2003).
